Test [1] deals with T1, Pertussis toxin (PT) (Bordetella pertussis, UniProt P04977 35-269; P04978 28-226; P04979 29-227; P0A3R5 43-152; P04981 35-133).
T1 construct: mature; also called purified PT; biotinylated PT
In words: 35S-labelled, His-tag purified free peptide (TNT expressed) on biotinylated PT on streptavidin magnetic beads, scintillation counting (test 1).
Method: (§1) By this measure, those bated with biotinylated PT immobilized on streptavidin-magnetic beads for 1 h at RT. The beads were washed 3× with HBS-buffer and then resuspended in water and analyzed by liquid scintillation counting. In control experiments each candidate was incubated with streptavidin beads only (without PT).

The target in test [2] is T1, Pertussis toxin (PT). The test is described as above. This is another data set of the same source.
Method: as §1
For test [3], the target named is T1, Pertussis toxin (PT). In words: 20 pmol sepharose-immobilized peptide with 100 pmol (500 nM) PT, bound PT quantified by gel, 1:1 ratio assumed.
For test [4], the target named is T1, Pertussis toxin (PT). Description: ~200 pmol peptide on streptavidin sepharose with 100 pmol purified PT, gel and silver staining.
Test [5] addresses T1, Pertussis toxin (PT). Description: BIAcore 2000, 2.5-100 nM peptide over PT amine coupled to a CM5 chip (6000 RU), HBS/EP, room temperature. In general terms: Surface plasmon resonance follows binding to a sensor surface in real time, without labels.

Where no end group is shown, it is not given here. The star is where a group is joined. Biotin = O=C1N[C@H]2[C@H](CS[C@H]2CCCCC(=O)*)N1; AEEA = NCCOCCOCC(=O)O

B1: gurmarin variant # 11 (seq # 194328) (peptide)
chain: MHHHHHHSGSSSGSGCVKKDELCNWVTPMRCEPLECLGHGLGYAYCGSGSSGSS
Take B1: in the test with Pertussis toxin (PT) [1], the binding result is “binds”.

B2: PP26 variant # 6 (seq # 197596) (peptide)
chain: MGRGSHHHHHHARSTMNTNRMDIQRLMTNHVKRDSSPGSIDANAPKASAI
Regarding B2, the binding result with Pertussis toxin (PT) [2] was “binds”.

B3: synthetic biotinylated peptide pp26 15 n (Seq # 198000-1) (peptide)
peptide: {Biotin-AEEA}-RSWRDTRKLHMRHYFPLAIDSYWDHTLRDA
notes: also called pp26 peptide 15; pp26 clone 15
For the molecule B3, in the test with Pertussis toxin (PT) [3], the “Fraction of binding active peptide” value was > 12.5%.

B4: gurmarin variant # 12 (seq # 194297) (peptide)
chain: MHHHHHHSGSSSGSGCVKKDELCVFYFPNCCEPLECRWVNDNYGWCGSGSSGSS
Turning to B4, the binding result with Pertussis toxin (PT) [1] was “binds”.

B5: synthetic biotinylated peptide gurmarin 10 n (Seq # 194264-1) (peptide)
peptide: {Biotin-AEEA}-SGCVKKDELCELAVDECCEPLECFQMGHGFKRCG
modifications: ends and bridges not checked
notes: also called gurm 10n
On to B5, for which the “Fraction of binding active peptide” value with Pertussis toxin (PT) [3] is > 5%.

B6: synthetic biotinylated peptide gurmarin 9 n (Seq # 194259-1) (peptide)
peptide: {Biotin-AEEA}-SGCVKKDELCARWDLVCCEPLECIYTSELYATCG
modifications: cysteine pairing not given here
notes: also called gurm 9n; gurmarin peptide 9
With B6, the “Fraction of binding active peptide” value in the test with Pertussis toxin (PT) [3] is > 12.5%.

B7: synthetic biotinylated peptide gurmarin 19 n (Seq # 194737-1) (peptide)
peptide: {Biotin-AEEA}-SGCVKKDELCELAIDECCEPLECTKGDLGFRKCG
modifications: ends and bridges not checked
notes: also called gurm 19n
B7: in the test with Pertussis toxin (PT) [3], the “Fraction of binding active peptide” value is > 5%.

B8: synthetic biotinylated peptide pp26 5 c (Seq # 197557-1) (peptide)
peptide: RSSHCRHRNCHTITRGNMRIETPNNIRKDAK(Biotin)
modifications: cysteine pairing not given here
Consider B8, for which the binding result in the test with Pertussis toxin (PT) [4] was “binds”.

B9: synthetic biotinylated peptide gurmarin 15 n (Seq # 194511-1) (peptide)
peptide: {Biotin-AEEA}-SGCVKKDELCSQSVPMCCEPLECKWFNENYGICGS
modifications: ends and bridges not checked
notes: also called gurm 15n; gurmarin peptide 15
As to B9, the “Fraction of binding active peptide” value in the test with Pertussis toxin (PT) [3] is > 50%.

B10: gurmarin variant # 9 (seq # 194259) (peptide)
chain: MHHHHHHSGSSSGSGCVKKDELCARWDLVCCEPLECIYTSELYATCGSGSSGSS
With B10, the binding result with Pertussis toxin (PT) [1] was “binds”.

B11: gurmarin variant # 16 (seq # 194533) (peptide)
chain: B10 chain
B11: in the test with Pertussis toxin (PT) [1], the binding result is given as “binds”.

B12: synthetic biotinylated peptide pp26 5 n (Seq # 197557-2) (peptide)
peptide: {Biotin-AEEA}-RSSHCRHRNCHTITRGNMRIETPNNIRKDA
modifications: cysteine pairing not given here
On to B12, for which the “Fraction of binding active peptide” value in the test with Pertussis toxin (PT) [3] was > 5%.

B13: synthetic biotinylated peptide pp26 9 n (Seq # 197588-1) (peptide)
peptide: {Biotin-AEEA}-RSNVIPLNEVWYDTGWDRPHRSRLSIDDDA
notes: also called pp26 peptide 9; pp26 clone 9
Take B13: the “Fraction of binding active peptide” value with Pertussis toxin (PT) [3] was > 50%. Besides, in the test with Pertussis toxin (PT) [5], the Kd (usually the equilibrium constant for the complex coming apart) was found to be 7.5 nM; the koff – broadly, the rate constant with which the complex falls apart – was determined as 0.001 s⁻¹; the kon (as a rule, a measure of how fast the partners come together) stood at 130000 M⁻¹ s⁻¹.

B14: gurmarin variant # 15 (seq # 194511) (peptide)
chain: MHHHHHHSGSSSGSGCVKKDELCSQSVPMCCEPLECKWFNENYGICGSGSSGSS
As for B14, the binding result with Pertussis toxin (PT) [1] is “binds”.

B15: gurmarin variant # 10 (seq # 194264) (peptide)
chain: MHHHHHHSGSSSGSGCVKKDELCELAVDECCEPLECFQMGHGFKRCGSGSSGSS
For the molecule B15, in the test with Pertussis toxin (PT) [1], the binding result is reported as “binds”.

B16: PP26 variant # 15 (seq # 198000) (peptide)
chain: MGRGSHHHHHHARSWRDTRKLHMRHYFPLAIDSYWDHTLRDANAPKASAI
Regarding B16, the binding result with Pertussis toxin (PT) [2] is “binds”.

B17: gurmarin variant # 14 (seq # 194479) (peptide)
chain: MHHHHHHSGSSSGSGCVKKDELCTTASKSCCEPLECKWTNEHFGTCGSGSSGSS
Consider B17, for which the binding result in the test with Pertussis toxin (PT) [1] is given as “binds”.

B18: PP26 variant # 14 (seq # 197825) (peptide)
chain: MGRGSHHHHHHARSWQPEVKMSSLVDTSQTVGAAVETRTTDANAPKASA
In the case of B18, the binding result in the test with Pertussis toxin (PT) [2] is recorded as “binds”.

B19: PP26 variant # 5 (seq # 197557) (peptide)
chain: MGRGSHHHHHHARSSHCRHRNCHTITRGNMRIETPNNIRKDANAPKASAI
In the case of B19, in the test with Pertussis toxin (PT) [2], the binding result is recorded as “binds”.

The values are drawn from patent publication US8299210 (Sanofi, dated 2012).
